Experiment [1] addresses S500D-eEF-2K, phosphorylated at T348 (S500D-eEF-2K^p) (UniProt O00418).
Experiment [2] concerns the target eukaryotic elongation factor-2 kinase, wild type, phosphorylated at T348 (eEF-2K^p) (UniProt O00418).

This note sets out measurements from article PMC12834908.

For the substance “calmodulin (CaM) (from UniProt P0DP23 1-149) (natural protein)”, the results for the Ca^2+/CaM-dependent kinase activity kobs (2 μM CaM, 450 μM PepS peptide substrate) in experiment [1] and in experiment [2] were 33 s⁻¹ and 40 s⁻¹, respectively.
